Common to all, as to test: cryo-EM structure
For assay [1], the target named is Capsid associated protein P30 of bacteriophage PR772 (bacteriophage PR772).
The target in assay [2] is Host-recognition protein P5 of bacteriophage PR772 (bacteriophage PR772).
The target of assay [3] is Major capsid protein P3 of bacteriophage PR772 (bacteriophage PR772).

For orientation: stoichiometry N means the number of molecules, sites or subunits per partner or assembly.

As for “Capsid associated protein P30 of bacteriophage PR772 (natural protein)”, the stoichiometry N in assay [1] came out at 2. In turn, “Host-recognition protein P5 of bacteriophage PR772 (natural protein)” had a stoichiometry N in assay [2] of 3. The substance “Major capsid protein P3 of bacteriophage PR772 (natural protein)” yielded a stoichiometry N in assay [3] of 3.

These data come from article doi:10.1101/645523.
